For orientation: EC50 (read off the curve) means the concentration at which the effect is half-maximal.

Where a chain is given by its changes, count along the chain named. Names may count otherwise.

To fix the notation:
T1: human CD73 mutant 19 (human, UniProt P21589 27-549)
T1 construct: Transfected in HEK293T cells
T1 chain: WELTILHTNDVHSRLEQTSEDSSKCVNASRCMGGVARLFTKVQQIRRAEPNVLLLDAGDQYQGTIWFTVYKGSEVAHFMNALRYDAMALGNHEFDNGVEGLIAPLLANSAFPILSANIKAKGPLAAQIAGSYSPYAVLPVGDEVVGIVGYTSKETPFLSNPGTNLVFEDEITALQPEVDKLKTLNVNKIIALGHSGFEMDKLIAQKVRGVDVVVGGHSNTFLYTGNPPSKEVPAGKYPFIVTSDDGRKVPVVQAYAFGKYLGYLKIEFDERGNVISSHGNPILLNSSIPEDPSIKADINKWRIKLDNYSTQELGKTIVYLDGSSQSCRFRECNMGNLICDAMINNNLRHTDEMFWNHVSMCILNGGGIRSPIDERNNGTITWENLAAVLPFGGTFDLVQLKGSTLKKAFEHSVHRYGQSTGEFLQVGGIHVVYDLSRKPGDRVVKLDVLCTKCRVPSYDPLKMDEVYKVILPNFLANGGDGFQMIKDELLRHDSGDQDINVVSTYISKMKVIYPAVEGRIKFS

T2: human CD73 mutant 22 (human, UniProt P21589 27-549)
T2 construct: Transfected in HEK293T cells
T2 chain: T1 chain with K71A, E99A, A110K, A126S, A129S, S131L, S133L, A136K, K304A

T3: human CD73 mutant 18 (human, UniProt P21589 27-549)
T3 construct: Transfected in HEK293T cells
T3 chain: T1 chain with A81S, R83A, A126S, A129S

T4: human CD73 mutant 16 (human, UniProt P21589 27-549)
T4 construct: Transfected in HEK293T cells
T4 chain: T1 chain with A126S, A129S

T5: human CD73 mutant 21 (human, UniProt P21589 27-549)
T5 construct: Transfected in HEK293T cells
T5 chain: T1 chain with K71A, E99A, A110K, A126S, Q127A, A129S, S131L, S133L, A136K

B1: antibody 11E1 (antibody, human IgG1, V domains shown)
VH: EIQLQQSGPELVKPGASVKVSCKASGYAFTSYNMYWVKQSHGKSLEWIGYIDPYNGGTSYNQKFKGKATLTVDKSSSTAYMHLNSLTSEDSAVYYCARGYGNYKAWFAYWGQGTLVTVSA
VL: DAVMTQTPKFLLVSAGDRVTITCKASQSVTNDVAWYQQKPGQSPKLLIYYASNRYTGVPDRFTGSGYGTDFTFTISTVQAEDLAVYFCQQDYSSLTFGAGTKLELK
notes: Produced as chimeric human IgG1 with heavy chain N297Q (Kabat EU numbering); also called 1E11
B2: antibody 6E1 (antibody, human IgG1, V domains shown)
VH: B1 VH with I2F, S44R, T58S, S85N, G101N
VL: B1 VL with D1S, A2I, V78M
notes: Produced as chimeric human IgG1 with heavy chain N297Q (Kabat EU numbering)
B3: antibody 3C12 (antibody, human IgG1, V domains shown)
VH: B1 VH with E1Q, T30A, Y35N, E46D, T58S, Q62L, K63T, S77T
VL: DVVMTQTPKFLLVSAGDRVTITCKASQSVSNDVAWYQQKPGQSPKLLIYYASTRYTGVPDRFTGSGYGTDFTFTISTVQAEDLAVYFCQQDYSSLTFGAGTKLELKR
notes: Produced as chimeric human IgG1 with heavy chain N297Q (Kabat EU numbering); RTVAAP)

The first test addresses T1, human CD73 mutant 19. The test is described as follows: flow cytometry, HEK293T transfectants.
For the molecule B1, the binding result is on record as “no binding”.
For the molecule B2, the binding result is listed as “no binding”.
Still for that read-out and setting: the entry for B3 is “no binding”.

For the next test, the target named is T2, human CD73 mutant 22. The test is described as follows: flow cytometry, HEK293T transfectants.
Turning to B1, the binding result was “no binding”.
For B2, the binding result is “no binding”.
Still for that read-out and setting: the entry for B3 is “no binding”.

Another test addresses T3, human CD73 mutant 18. The test is described as follows: flow cytometry, HEK293T transfectants. (In general: A flow cytometer gives signals particle by particle.)
As for B1, the binding result is recorded as “no binding”.
Same read-out and setting: the entry for B2 is “no binding”; for B3 it is “no binding”.

A further test addresses T4, human CD73 mutant 16. Briefly: flow cytometry, HEK293T transfectants.
With B1, the binding result is recorded as “no binding”.
B2: the binding result was “no binding”.
Same read-out and setting: the entry for B3 is “no binding”.

The next test deals with T5, human CD73 mutant 21. Briefly: flow cytometry, HEK293T transfectants.
Consider B1, for which the binding result is given as “no binding”.
On the same count and under the same terms, the entry for B2 is “no binding”.
On the same count and under the same terms, the entry for B3 is “no binding”.

The target of a further test is T6, cynomolgus CD73 expressed on a recombinant host cell line (cynomolgus).
T6 construct: whole, on cells; also called cynoCD73
Briefly: flow cytometry titration on a cynomolgus-CD73-expressing recombinant host cell line, median of fluorescence.
As for B1, the “EC50 (read off the curve)” value is ~0.4 µg/mL.
Still for that read-out and setting: the figure for B2 is ~0.4 µg/mL.
Take B3: the “EC50 (read off the curve)” value is ~0.4 µg/mL.
